Experimental data taken from publication PMC4928909, “Roles of C-Terminal Region of Yeast and Human Rad52 in Rad51-Nucleoprotein Filament Formation and ssDNA Annealing”.

Key:
Assay in all cases: EMSA; 3 mM Mg acetate; 30 mM Tris-acetate pH 7.5, 3 mM Mg acetate, 20 mM NaCl, 37 C, 15 min, 100 nM labeled ssDNA; 6% PAGE in TBE
hRAD52NM = biological target: T1, hRAD52NM (Homo sapiens, UniProt P43351 1-290); details: protein: recombinant; tags: C-terminal His6; chain copies: 11; label: 5'-32P; single strand
T1 sequence: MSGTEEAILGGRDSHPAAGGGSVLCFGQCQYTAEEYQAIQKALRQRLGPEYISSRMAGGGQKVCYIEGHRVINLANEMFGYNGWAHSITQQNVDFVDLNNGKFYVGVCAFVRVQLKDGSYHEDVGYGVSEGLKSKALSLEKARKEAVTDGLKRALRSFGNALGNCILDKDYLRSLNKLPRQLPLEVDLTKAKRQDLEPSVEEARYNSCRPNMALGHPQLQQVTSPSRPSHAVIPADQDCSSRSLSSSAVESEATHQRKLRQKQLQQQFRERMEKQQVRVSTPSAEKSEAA

hRAD52 = biological target: T2, hRAD52 (Homo sapiens, UniProt P43351 1-418); details: protein: recombinant; tags: C-terminal His6; label: 5'-32P; single strand
T2 sequence: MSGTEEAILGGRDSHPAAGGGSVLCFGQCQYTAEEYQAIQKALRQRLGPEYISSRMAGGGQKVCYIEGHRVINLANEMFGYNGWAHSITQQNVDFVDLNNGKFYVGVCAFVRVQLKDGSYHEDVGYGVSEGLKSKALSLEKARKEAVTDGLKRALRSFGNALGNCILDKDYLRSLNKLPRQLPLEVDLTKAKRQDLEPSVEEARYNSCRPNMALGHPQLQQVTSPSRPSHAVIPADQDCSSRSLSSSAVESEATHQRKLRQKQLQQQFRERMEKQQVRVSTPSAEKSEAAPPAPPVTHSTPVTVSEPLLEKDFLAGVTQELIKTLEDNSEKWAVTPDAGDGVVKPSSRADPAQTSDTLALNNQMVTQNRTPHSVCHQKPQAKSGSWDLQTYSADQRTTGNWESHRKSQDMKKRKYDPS

yRad52 = yRad52 (Saccharomyces cerevisiae, UniProt P06778 1-471); details: protein: recombinant; tags: C-terminal His6; chain copies: 10; label: 5'-32P; single strand

Measured: binding result

yRad52, sequence (P06778 whole entry): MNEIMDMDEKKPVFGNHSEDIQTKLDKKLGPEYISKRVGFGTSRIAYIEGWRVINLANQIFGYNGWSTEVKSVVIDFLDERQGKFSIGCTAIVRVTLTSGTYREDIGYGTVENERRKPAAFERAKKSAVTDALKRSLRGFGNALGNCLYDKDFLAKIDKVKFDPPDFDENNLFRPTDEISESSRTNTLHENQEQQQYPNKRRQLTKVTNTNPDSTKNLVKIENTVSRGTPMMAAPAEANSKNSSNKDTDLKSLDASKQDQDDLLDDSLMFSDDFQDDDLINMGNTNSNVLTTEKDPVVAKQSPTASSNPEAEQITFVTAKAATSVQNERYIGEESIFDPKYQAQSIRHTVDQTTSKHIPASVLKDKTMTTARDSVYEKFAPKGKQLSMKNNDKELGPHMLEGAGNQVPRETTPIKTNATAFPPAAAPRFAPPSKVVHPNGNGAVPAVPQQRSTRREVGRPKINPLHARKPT

B1: TSO252 (ssDNA)
DNA: TGGTTGAGTACTCACCAGTCACAGAAAAGCATCTTACGGATGGCATGACAGTAAGAGAATTATGCAGTGC
binds: hRAD52NM | hRAD52 | yRad52
